Paper PMC7055227, “Complete Profiling of Methyl-CpG-Binding Domains for Combinations of Cytosine Modifications at CpG Dinucleotides Reveals Differential Read-out in Normal and Rett-Associated States”

B1: mC/hmC duplex (dsDNA)
DNA 1: AAAAAAAAAAACGAAAAAAAAAAA
DNA 2: TTTTTTTTTTTCGTTTTTTTTTTT
modifications: 5-methylcytosine at C12 of one strand, 5-hydroxymethylcytosine at C12 of the other; strand assignment not certain
B2: p10 hmC/hmC duplex (dsDNA)
DNA 1: AAAAAAAAAAACGAAAAAAAAAAA
DNA 2: TTTTTTTTTTTCGTTTTTTTTTTT
modifications: 5-hydroxymethylcytosine at C12 of strand 1 and C12 of strand 2 (o3115/o3112)
B3: p08 fC/mC duplex (dsDNA)
DNA 1: AAAAAAAAAAACGAAAAAAAAAAA
DNA 2: TTTTTTTTTTTCGTTTTTTTTTTT
modifications: 5-formylcytosine at C12 of strand 1; 5-methylcytosine at C12 of strand 2 (o3116/o2909)
B4: p03 hmC/C duplex (dsDNA)
DNA 1: AAAAAAAAAAACGAAAAAAAAAAA
DNA 2: TTTTTTTTTTTCGTTTTTTTTTTT
modifications: 5-hydroxymethylcytosine at C12 of strand 1; strand 2 unmodified (o3115/o2904)
B5: probe p03 (dsDNA)
DNA 1: AAAAAAAAAAACGAAAAAAAAAAA
DNA 2: TTTTTTTTTTTCGTTTTTTTTTTT
modifications: cytosine states of p03 not given in the material (perhaps C/C)
B6: p06 mC/mC duplex (dsDNA)
DNA 1: AAAAAAAAAAACGAAAAAAAAAAA
DNA 2: TTTTTTTTTTTCGTTTTTTTTTTT
modifications: 5-methylcytosine at C12 of strand 1 and C12 of strand 2 (o2967/o2909)
B7: p11 fC/hmC duplex (dsDNA)
DNA 1: AAAAAAAAAAACGAAAAAAAAAAA
DNA 2: TTTTTTTTTTTCGTTTTTTTTTTT
modifications: 5-formylcytosine at C12 of strand 1; 5-hydroxymethylcytosine at C12 of strand 2 (o3116/o3112)
B8: p07 hmC/mC duplex (dsDNA)
DNA 1: AAAAAAAAAAACGAAAAAAAAAAA
DNA 2: TTTTTTTTTTTCGTTTTTTTTTTT
modifications: 5-hydroxymethylcytosine at C12 of strand 1; 5-methylcytosine at C12 of strand 2 (o3115/o2909)
B9: mC/fC duplex (dsDNA)
DNA 1: AAAAAAAAAAACGAAAAAAAAAAA
DNA 2: TTTTTTTTTTTCGTTTTTTTTTTT
modifications: 5-methylcytosine at C12 of one strand, 5-formylcytosine at C12 of the other; strand assignment not certain
B10: hmC/fC duplex (dsDNA)
DNA 1: AAAAAAAAAAACGAAAAAAAAAAA
DNA 2: TTTTTTTTTTTCGTTTTTTTTTTT
modifications: 5-hydroxymethylcytosine at C12 of one strand, 5-formylcytosine at C12 of the other; strand assignment not certain

Legend:
hMBD4 MBD [1] = target: T1, hMBD4 MBD (Homo sapiens, UniProt O95243); assay: EMSA; lower than mC/fC; EMSA: 20 mM HEPES pH 7.3, 30 mM KCl, 1 mM EDTA, 10 mM (NH4)2SO4, 1 mM DTT, 0.2% Tween 20, 50 ng/uL poly(dA)-poly(dT), protein diluted in dialysis buffer with 0.1 mg/mL BSA; 2 nM duplex; 20 min at room temperature; gel at 4 C; details: protein: recombinant; tags: N-term SpA(Z)-Factor Xa-TEV, C-term 8xHis; label: 5' 6-FAM on strand 1; blunt
hMeCP2 MBD [2] = target: hMeCP2 MBD (Homo sapiens, UniProt P51608 90-181); assay: EMSA; 20 mM HEPES, 30 mM KCl, 1 mM EDTA, 10 mM (NH4)2SO4, pH 7.3, 1 mM DTT, 0.2% Tween 20, 50 ng/uL poly(dA)-poly(dT) trap, 2 nM duplex, protein in dialysis buffer with BSA; 20 min room temperature; gel at 4 C; details: protein: recombinant, label: 5' 6-FAM on strand 1
hMeCP2 MBD [3] = target: hMeCP2 MBD (Homo sapiens, UniProt P51608); assay: EMSA; poly(dA)-poly(dT) 50 ng/uL; EMSA: 20 mM HEPES pH 7.3, 30 mM KCl, 1 mM EDTA, 10 mM (NH4)2SO4, 1 mM DTT, 0.2% Tween 20, 50 ng/uL poly(dA)-poly(dT), protein diluted in dialysis buffer with 0.1 mg/mL BSA; 2 nM duplex; 20 min at room temperature; gel at 4 C; details: protein: recombinant; tags: N-term SpA(Z)-Factor Xa-TEV, C-term 8xHis; label: 5' 6-FAM on strand 1; blunt
hMBD4 MBD [4] = target: T1, hMBD4 MBD; assay: EMSA; higher than mC/hmC; EMSA: 20 mM HEPES pH 7.3, 30 mM KCl, 1 mM EDTA, 10 mM (NH4)2SO4, 1 mM DTT, 0.2% Tween 20, 50 ng/uL poly(dA)-poly(dT), protein diluted in dialysis buffer with 0.1 mg/mL BSA; 2 nM duplex; 20 min at room temperature; gel at 4 C; details: protein: recombinant; tags: N-term SpA(Z)-Factor Xa-TEV, C-term 8xHis; label: 5' 6-FAM on strand 1; blunt
hMBD4 MBD [5] = target: T1, hMBD4 MBD; assay: EMSA; new preferred combination; EMSA: 20 mM HEPES pH 7.3, 30 mM KCl, 1 mM EDTA, 10 mM (NH4)2SO4, 1 mM DTT, 0.2% Tween 20, 50 ng/uL poly(dA)-poly(dT), protein diluted in dialysis buffer with 0.1 mg/mL BSA; 2 nM duplex; 20 min at room temperature; gel at 4 C; details: protein: recombinant; tags: N-term SpA(Z)-Factor Xa-TEV, C-term 8xHis; label: 5' 6-FAM on strand 1; blunt

Chain of hMeCP2 MBD (Homo sapiens, UniProt P51608 90-181) (P51608 90-181): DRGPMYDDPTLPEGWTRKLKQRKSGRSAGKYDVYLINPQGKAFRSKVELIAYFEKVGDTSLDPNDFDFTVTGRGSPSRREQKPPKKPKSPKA
T1 sequence (O95243 76-167): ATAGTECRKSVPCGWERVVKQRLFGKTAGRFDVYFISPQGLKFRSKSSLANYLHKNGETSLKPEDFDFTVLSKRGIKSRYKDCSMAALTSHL
Chain of hMeCP2 MBD (Homo sapiens, UniProt P51608) (P51608 90-181): as the sequence (P51608 90-181) above

Binder	Kd (hMeCP2 MBD [2]; blunt) [nM]	also measured
B1		binding result (hMBD4 MBD [1]): binds
B2		Kd (hMeCP2 MBD [2]): 967 ± 89.6 nM
B3	197 ± 24	
B4	1080 ± 101	
B5		Kd (hMeCP2 MBD [3]): 1080 ± 101 nM
B6	26.6 ± 3.85	
B7	541 ± 62.7	
B8	224 ± 24.6	
B9		binding result (hMBD4 MBD [4]): binds
B10		binding result (hMBD4 MBD [5]): binds
